The target of experiment [1] is N-terminally biotinylated HSP27 IXI peptide 178…186 (F185H), unmodified (human). The experiment is described as follows: SPR.
The target of experiment [2] is HSP27 alpha crystallin domain (ACD) (human). Put plainly: ITC. On the technique in general: In ITC the heat of successive injections is recorded.

No end group written: not given here.

One may read the Kd as the free concentration of one partner at which half of the binding sites on the other are occupied at equilibrium, for simple one-to-one binding. The molecule “HSP27 alpha crystallin domain (ACD) (domain or fragment)” registered a Kd in experiment [1] of 3.14 µM.
Take EITIPVTHE (not fully specified) [HSP27 IXI peptide 178…186 (F185H), unmodified, without biotin]: in experiment [2], the Kd turned out to be 14.3 µM.
